Experimental findings from patent publication US20060240053A1 (L OREAL, published 2006) are described below.

The data set concerns the molecule itself. Kind of data set: BS3 chemical crosslinking, then gel filtration and SDS-PAGE (self-association). Here is the method:
A study of the crosslinking using BS3 (Pierce) is carried out on activated SASPase (SEQ ID NO: 6), obtained by acidification and purification by exclusion chromatography (gel filtration) of the recombinant fusion protein GST-SASPase Δ1-84.
1 μg of BS3 in 60 μl of 50 mM phosphate buffer, pH 7, containing 150 mM NaCl, 0.1% TX100 and 5 mM EDTA is added to the activated SASPase (SEQ ID NO: 6) obtained in example III, placed in ice. A control sample free of BS3 is also prepared. After 90 min, 2 μl of 1 M Tris-HCl, pH 8, are introduced into the reaction media in order to stop the reaction. The products obtained are then analyzed by gel filtration and by SDS-PAGE electrophoresis.
In general terms: In gel filtration, larger molecules generally elute earlier.

B1: activated SASPase (SEQ ID NO: 6) (enzyme)
chain: ANSMGKGYYLKGKIGKVPVRFLVDSGAQVSVVHPNLWEEVTDGDLDTLQPFENVVKVANGAEMKILGVWDTAVSLGKLKLKAQFLVANASAEEAIIGTDVLQDHNAILDFEHRTCTLKGKKFRLLPVGGSLEDEFDLE
notes: also called 12 kD SASPase
B1: the binding result is reported as “binds”.
